Results reported in US6544753 (MERCK, dated 2003).

target: T1, human GALR2 (human, UniProt O43603 1-387); experiment: cell-based or functional assay
T1 sequence: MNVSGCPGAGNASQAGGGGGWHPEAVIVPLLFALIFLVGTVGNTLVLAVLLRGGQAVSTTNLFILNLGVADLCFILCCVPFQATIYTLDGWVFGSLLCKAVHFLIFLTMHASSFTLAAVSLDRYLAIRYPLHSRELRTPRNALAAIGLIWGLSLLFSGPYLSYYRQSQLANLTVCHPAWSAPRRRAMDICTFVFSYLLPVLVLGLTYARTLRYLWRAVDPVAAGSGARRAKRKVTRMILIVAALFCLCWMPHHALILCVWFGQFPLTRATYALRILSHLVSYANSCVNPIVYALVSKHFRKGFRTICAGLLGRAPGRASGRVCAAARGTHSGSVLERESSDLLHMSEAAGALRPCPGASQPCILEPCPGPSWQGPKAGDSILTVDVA

Molecule	aequorin bioluminescence in 293-AEQ17 cells, EC50
M35 (peptide)	44 nM
M40 (peptide)	8.8 nM
WTLNSAGYLLGPHAIDNHRSFSDKHGLT (peptide, UniProt P10683 34-61, looked up) [rat Gal(2-29)]	31 nM
TLNSAGYLLGPHAIDNHRSFSDKHGLT (peptide, UniProt P10683 35-61, looked up) [rat Gal (3-29)]	> 10000 nM
